Laboratory results published in publication PMC10197521 (bioRxiv, 2023).
Residue numbers refer to the chain shown, from its start.

Legend:
Experiment in all cases: co-IP
[1] = target: T1, C-terminally truncated mouse CD4 T1 (mouse, UniProt P06332-1 27-422)
T1 sequence (looked up): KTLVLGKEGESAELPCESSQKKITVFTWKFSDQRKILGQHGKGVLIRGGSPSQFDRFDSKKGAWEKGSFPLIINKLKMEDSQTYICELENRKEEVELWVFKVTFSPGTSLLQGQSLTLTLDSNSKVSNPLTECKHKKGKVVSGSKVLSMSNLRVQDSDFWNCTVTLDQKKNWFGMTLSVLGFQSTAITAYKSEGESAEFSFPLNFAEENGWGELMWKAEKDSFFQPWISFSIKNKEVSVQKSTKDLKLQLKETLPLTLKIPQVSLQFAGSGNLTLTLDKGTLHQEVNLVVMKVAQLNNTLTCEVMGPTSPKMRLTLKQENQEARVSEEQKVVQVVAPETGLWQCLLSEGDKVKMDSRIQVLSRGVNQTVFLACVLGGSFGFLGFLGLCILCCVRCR

T1-Palm (2C) = target: T2, T1-Palm (2C) (mouse, UniProt P06332-1 27-422, C418S | C421S)
T2 sequence (looked up): T1 sequence (looked up) with C392S, C395S

T1-TP (3C) = target: T3, T1-TP (3C) (mouse, UniProt P06332-1 27-422, G403V | G406L | C417S | C418S | C421S)
T3 sequence (looked up): T1 sequence (looked up) with G377V, G380L, C391S, C392S, C395S

[2] = target: T4, T1-TMD (CD4 T1 with GGXXG to GVXXL) (mouse, UniProt P06332-1 27-422, G403V | G406L)
T4 sequence (looked up): T1 sequence (looked up) with G377V, G380L

T1-TP (2C) = target: T5, T1-TP (2C) (mouse, UniProt P06332-1 27-422, G403V | G406L | C418S | C421S)
T5 sequence (looked up): T1 sequence (looked up) with G377V, G380L, C392S, C395S

B1: Src kinase LCK (enzyme, UniProt P06240 1-509, looked up)
chain: MGCVCSSNPEDDWMENIDVCENCHYPIVPLDSKISLPIRNGSEVRDPLVTYEGSLPPASPLQDNLVIALHSYEPSHDGDLGFEKGEQLRILEQSGEWWKAQSLTTGQEGFIPFNFVAKANSLEPEPWFFKNLSRKDAERQLLAPGNTHGSFLIRESESTAGSFSLSVRDFDQNQGEVVKHYKIRNLDNGGFYISPRITFPGLHDLVRHYTNASDGLCTKLSRPCQTQKPQKPWWEDEWEVPRETLKLVERLGAGQFGEVWMGYYNGHTKVAVKSLKQGSMSPDAFLAEANLMKQLQHPRLVRLYAVVTQEPIYIITEYMENGSLVDFLKTPSGIKLNVNKLLDMAAQIAEGMAFIEEQNYIHRDLRAANILVSDTLSCKIADFGLARLIEDNEYTAREGAKFPIKWTAPEAINYGTFTIKSDVWSFGILLTEIVTHGRIPYPGMTNPEVIQNLERGYRMVRPDNCPEELYHLMMLCWKERPEDRPTFDYLRSVLDDFFTATEGQYQPQP
Lck DRM AUC (LCK found with CD4, normalised to CD4), percent of WT [1]: 28.8 % of WT control | Lck DSM AUC (LCK found with CD4, normalised to CD4), percent of WT [1]: 16.1 % of WT control | Lck Total AUC (LCK found with CD4, normalised to CD4), percent of WT [1]: 19.2 % of WT control | Lck DRM AUC (LCK found with CD4, normalised to CD4), percent of T1 (T1-Palm (2C)): 274 % of T1 control | Lck DSM AUC (LCK found with CD4, normalised to CD4), percent of T1 (T1-Palm (2C)): 131 % of T1 control | Lck Total AUC (LCK found with CD4, normalised to CD4), percent of T1 (T1-Palm (2C)): 139 % of T1 control | Lck DRM AUC (LCK found with CD4, normalised to CD4), percent of T1 (T1-TP (3C)): 86.8 % of T1 control | Lck DSM AUC (LCK found with CD4, normalised to CD4), percent of T1 (T1-TP (3C)): 103 % of T1 control | Lck Total AUC (LCK found with CD4, normalised to CD4), percent of T1 (T1-TP (3C)): 101 % of T1 control | Lck DRM AUC (LCK found with CD4, normalised to CD4), percent of T1 [2]: 62.4 % of T1 control | Lck DSM AUC (LCK found with CD4, normalised to CD4), percent of T1 [2]: 111 % of T1 control | Lck Total AUC (LCK found with CD4, normalised to CD4), percent of T1 [2]: 93 % of T1 control | Lck DRM AUC (LCK found with CD4, normalised to CD4), percent of T1 (T1-TP (2C)): 121 % of T1 control | Lck DSM AUC (LCK found with CD4, normalised to CD4), percent of T1 (T1-TP (2C)): 115 % of T1 control | Lck Total AUC (LCK found with CD4, normalised to CD4), percent of T1 (T1-TP (2C)): 113 % of T1 control
